From US20210130436A1 (published 2021)

Tests used:
[1] = target: T1, human PD-L1, expressed on CHO cells (human, UniProt Q9NZQ7 19-290); test: flow cytometry on CHO cells stably expressing human PD-L1; PE anti-human Fc
T1 construct: Full-length surface expression construct transduced by lentivirus into CHO cells; also called huPD-L1; CD274

[2] = target: T2, human CTLA-4 (CTLA4), expressed on CHO cells (human, UniProt P16410 36-223); test: flow cytometry on CHO cells stably expressing human CTLA-4; PE anti-human Fc
T2 construct: Full-length surface expression construct transduced by lentivirus into CHO cells; also called huCTLA4
T2 sequence (P16410 36-223): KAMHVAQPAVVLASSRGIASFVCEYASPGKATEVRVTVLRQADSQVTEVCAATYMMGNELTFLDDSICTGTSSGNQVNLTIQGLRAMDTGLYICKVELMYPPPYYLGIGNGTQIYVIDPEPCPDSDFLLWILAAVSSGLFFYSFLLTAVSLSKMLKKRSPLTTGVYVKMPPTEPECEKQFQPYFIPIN

[3] = target: T3, human CTLA4 (huCTLA4), full-length, stably expressed on CHO cells (human, UniProt P16410 36-223); test: flow cytometry, CHO cells expressing huCTLA4
T3 construct: whole, on cells
T3 sequence (P16410 36-223): as above

[4] = target: T4, human PD-L1 (huPD-L1), full-length, stably expressed on CHO cells (human, UniProt Q9NZQ7 19-290); test: flow cytometry, CHO cells expressing huPD-L1
T4 construct: whole, on cells
T4 sequence (Q9NZQ7 19-290): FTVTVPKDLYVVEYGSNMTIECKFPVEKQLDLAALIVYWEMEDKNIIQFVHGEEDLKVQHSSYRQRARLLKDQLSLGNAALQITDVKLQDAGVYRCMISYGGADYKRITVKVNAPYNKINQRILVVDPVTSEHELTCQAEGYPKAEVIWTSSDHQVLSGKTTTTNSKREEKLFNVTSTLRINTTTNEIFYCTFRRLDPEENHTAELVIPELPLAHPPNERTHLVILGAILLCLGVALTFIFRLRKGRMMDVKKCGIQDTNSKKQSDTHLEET

[5] = target: T5, CD28, endogenously expressed on Jurkat/IL2 reporter cells (human, UniProt P10747 19-220); test: flow cytometry, Jurkat/IL2 reporter cells (endogenous CD28)
T5 construct: whole, on cells

[6] = target: T4, human PD-L1 (huPD-L1), full-length, …; test: flow cytometry; MFI on PD-L1 CHO cells over MFI on Jurkat cells (CD28)
[7] = target: T3, human CTLA4 (huCTLA4), full-length, …; test: flow cytometry, CHO cells expressing huCTLA4; MFI against WT CD80 of the table
[8] = target: T4, human PD-L1 (huPD-L1), full-length, …; test: flow cytometry, CHO cells expressing huPD-L1; MFI against WT CD80 of the table
[9] = target: T5, CD28, endogenously expressed on …; test: flow cytometry, Jurkat/IL2 reporter cells (endogenous CD28); MFI against WT CD80 of the table

T1 sequence (Q9NZQ7 19-290): as above

MFI at 33.3 nM [1] | MFI at 33.3 nM [2] | MFI at 33.3 nM [3] | MFI at 33.3 nM [4] | MFI at 33.3 nM [5] | Ratio of PDL1:CD28 [6] | Fold change to WT CD80 [7] | Fold change to WT CD80 [8] | Fold change to WT CD80 [9] | Binder
19200 MFI | 278000 MFI | – | – | – | – | – | – | – | variant CD80 IgV-Fc E35D/M43I/M47V/K89N (Fc fusion, not shown: small tags and cut ends; a dimerising Fc or GST, Fc fusion of the variant IgV) VIHVTKEVKEVATLSCGHNVSVEELAQTRIYWQKDKKMVLTMISGDVNIWPEYKNRTIFDITNNLSIVILALRPSDEGTYECVVLKYENDAFKREHLAEVTLSVKAD
– | – | 16000 MFI | 25000 MFI | 383 MFI | 65.3 ratio | 9.1 fold | 486 fold | 12.2 fold | variant CD80 IgV-Fc E35D/M47L/Y53F/V68M/A71G/K93R/E95V (Fc fusion, not shown: small tags and cut ends; a dimerising Fc or GST) VIHVTKEVKEVATLSCGHNVSVEELAQTRIYWQKDKKMVLTMMSGDLNIWPEFKNRTIFDITNNLSIMILGLRPSDEGTYECVVLKYEKDAFRRVHLAEVTLSVKAD
72100 MFI | 3980 MFI | – | – | – | – | – | – | – | variant CD80 IgV-Fc Q33L/E35D/M43I/Y53F/T62S/L85Q (Fc fusion, not shown: small tags and cut ends; a dimerising Fc or GST, Fc fusion of the variant IgV) VIHVTKEVKEVATLSCGHNVSVEELAQTRIYWLKDKKMVLTMISGDMNIWPEFKNRTIFDISNNLSIVILALRPSDEGTYECVVQKYEKDAFKREHLAEVTLSVKAD
– | – | 16600 MFI | 22800 MFI | 302 MFI | 75.4 ratio | 9.5 fold | 442 fold | 9.6 fold | variant CD80 IgV-Fc E35D/M47V/N48K/V68M/A71G/L85M (Fc fusion, not shown: small tags and cut ends; a dimerising Fc or GST) VIHVTKEVKEVATLSCGHNVSVEELAQTRIYWQKDKKMVLTMMSGDVKIWPEYKNRTIFDITNNLSIMILGLRPSDEGTYECVVMKYEKDAFKREHLAEVTLSVKAD
693 MFI | 226000 MFI | – | – | – | – | – | – | – | variant CD80 IgV-Fc E35D/M47V/T62A/A71D/K93E (Fc fusion, not shown: small tags and cut ends; a dimerising Fc or GST, Fc fusion of the variant IgV) VIHVTKEVKEVATLSCGHNVSVEELAQTRIYWQKDKKMVLTMMSGDVNIWPEYKNRTIFDIANNLSIVILDLRPSDEGTYECVVLKYEKDAFEREHLAEVTLSVKAD
21400 MFI | 2680 MFI | – | – | – | – | – | – | – | variant CD80 IgV-Fc Q33R/E35D/M47V/N48K/L85M/F92L (Fc fusion, not shown: small tags and cut ends; a dimerising Fc or GST, Fc fusion of the variant IgV) VIHVTKEVKEVATLSCGHNVSVEELAQTRIYWRKDKKMVLTMMSGDVKIWPEYKNRTIFDITNNLSIVILALRPSDEGTYECVVMKYEKDALKREHLAEVTLSVKAD
– | – | 16200 MFI | 16900 MFI | 1520 MFI | 11.1 ratio | 9.3 fold | 328 fold | 48.3 fold | variant CD80 IgV-Fc E35D/M43I/M47L/V68M (Fc fusion, not shown: small tags and cut ends; a dimerising Fc or GST) VIHVTKEVKEVATLSCGHNVSVEELAQTRIYWQKDKKMVLTMISGDLNIWPEYKNRTIFDITNNLSIMILALRPSDEGTYECVVLKYEKDAFKREHLAEVTLSVKAD
21800 MFI | 204000 MFI | – | – | – | – | – | – | – | variant CD80 IgV-Fc E35D/M38T/M43V/M47V/N48R/L85Q (Fc fusion, not shown: small tags and cut ends; a dimerising Fc or GST, Fc fusion of the variant IgV) VIHVTKEVKEVATLSCGHNVSVEELAQTRIYWQKDKKTVLTMVSGDVRIWPEYKNRTIFDITNNLSIVILALRPSDEGTYECVVQKYEKDAFKREHLAEVTLSVKAD
